How the values were obtained:
Settings in all cases: both partners purified
[1] = target: T1, recombinant Fc-tag-fused human Notch-1 extracellular domain (Homo sapiens, UniProt P46531); assay: BLI; Octet RED384; Fabs immobilised on amine-reactive generation-2 or anti-Fab CH1 biosensors, target proteins in solution at three or more concentrations; 25 C, PBS; global 1:1 fit; apparent KD (Fc-Notch proteins may dimerize, avidity)
T1 construct: Notch-1, human, extracellular domain; No catalogue number and no residue limits are printed; also called N1; source: bought: R&D Systems

[2] = target: T2, Jagged-2 receptor ectodomain (Homo sapiens (assumed), UniProt Q9Y219); assay: as above
T2 construct: Jagged-2 ectodomain; it may be an Fc fusion like the Notch proteins; also called J2

[3] = target: T1, recombinant Fc-tag-fused human Notch-1 …; assay: ELISA; multi-point Fab-ELISA: target immobilised at 5 ug/ml on MaxiSorp plates; purified Fab 0.01 nM-1 uM in PT for 30 min; detected with HRP-conjugated anti-HIS antibody; EC50 from a one-site specific-binding fit

T1 sequence (P46531 19-1735): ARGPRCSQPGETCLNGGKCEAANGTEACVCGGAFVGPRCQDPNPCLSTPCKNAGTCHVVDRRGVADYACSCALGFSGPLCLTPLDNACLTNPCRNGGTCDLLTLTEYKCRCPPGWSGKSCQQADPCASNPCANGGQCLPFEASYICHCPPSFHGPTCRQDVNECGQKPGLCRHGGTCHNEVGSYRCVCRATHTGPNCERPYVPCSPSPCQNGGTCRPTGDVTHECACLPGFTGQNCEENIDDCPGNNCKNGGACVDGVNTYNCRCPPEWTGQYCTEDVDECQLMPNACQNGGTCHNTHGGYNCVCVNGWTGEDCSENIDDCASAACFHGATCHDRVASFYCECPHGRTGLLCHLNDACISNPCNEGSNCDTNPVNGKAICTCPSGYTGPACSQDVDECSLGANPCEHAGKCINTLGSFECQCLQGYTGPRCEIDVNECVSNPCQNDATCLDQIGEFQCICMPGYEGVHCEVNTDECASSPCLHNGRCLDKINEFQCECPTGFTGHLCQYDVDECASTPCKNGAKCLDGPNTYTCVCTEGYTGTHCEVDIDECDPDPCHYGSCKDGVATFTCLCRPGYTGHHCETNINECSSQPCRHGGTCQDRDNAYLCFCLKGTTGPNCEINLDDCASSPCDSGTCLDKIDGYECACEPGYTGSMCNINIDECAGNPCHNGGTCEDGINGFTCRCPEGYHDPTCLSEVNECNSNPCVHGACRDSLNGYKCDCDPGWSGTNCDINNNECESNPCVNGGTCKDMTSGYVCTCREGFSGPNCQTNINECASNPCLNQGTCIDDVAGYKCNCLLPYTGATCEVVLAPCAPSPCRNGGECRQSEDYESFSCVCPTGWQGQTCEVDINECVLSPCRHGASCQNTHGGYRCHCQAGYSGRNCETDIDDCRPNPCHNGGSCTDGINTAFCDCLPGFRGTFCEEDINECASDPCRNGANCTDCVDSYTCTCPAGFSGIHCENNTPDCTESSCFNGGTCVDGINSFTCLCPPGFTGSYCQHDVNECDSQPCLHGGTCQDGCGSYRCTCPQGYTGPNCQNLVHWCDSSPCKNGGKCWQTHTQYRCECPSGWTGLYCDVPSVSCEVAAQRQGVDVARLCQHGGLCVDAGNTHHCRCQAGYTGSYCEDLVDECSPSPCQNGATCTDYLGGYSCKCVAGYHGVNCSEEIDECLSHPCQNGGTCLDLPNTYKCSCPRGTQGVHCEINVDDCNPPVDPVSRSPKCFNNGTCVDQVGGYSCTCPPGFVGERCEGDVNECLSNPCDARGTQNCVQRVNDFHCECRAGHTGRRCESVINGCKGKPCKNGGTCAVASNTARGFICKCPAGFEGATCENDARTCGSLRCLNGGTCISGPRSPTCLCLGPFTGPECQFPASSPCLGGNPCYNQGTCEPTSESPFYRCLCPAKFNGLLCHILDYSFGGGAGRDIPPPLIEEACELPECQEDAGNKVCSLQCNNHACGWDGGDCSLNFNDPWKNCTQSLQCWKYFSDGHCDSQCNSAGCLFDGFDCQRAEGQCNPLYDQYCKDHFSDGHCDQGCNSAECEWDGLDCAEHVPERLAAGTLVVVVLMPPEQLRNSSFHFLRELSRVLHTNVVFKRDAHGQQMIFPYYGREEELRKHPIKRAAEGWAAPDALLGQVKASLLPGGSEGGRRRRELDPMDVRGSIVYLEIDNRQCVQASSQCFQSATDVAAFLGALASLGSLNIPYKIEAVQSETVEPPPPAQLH
T2 sequence (Q9Y219 27-1080): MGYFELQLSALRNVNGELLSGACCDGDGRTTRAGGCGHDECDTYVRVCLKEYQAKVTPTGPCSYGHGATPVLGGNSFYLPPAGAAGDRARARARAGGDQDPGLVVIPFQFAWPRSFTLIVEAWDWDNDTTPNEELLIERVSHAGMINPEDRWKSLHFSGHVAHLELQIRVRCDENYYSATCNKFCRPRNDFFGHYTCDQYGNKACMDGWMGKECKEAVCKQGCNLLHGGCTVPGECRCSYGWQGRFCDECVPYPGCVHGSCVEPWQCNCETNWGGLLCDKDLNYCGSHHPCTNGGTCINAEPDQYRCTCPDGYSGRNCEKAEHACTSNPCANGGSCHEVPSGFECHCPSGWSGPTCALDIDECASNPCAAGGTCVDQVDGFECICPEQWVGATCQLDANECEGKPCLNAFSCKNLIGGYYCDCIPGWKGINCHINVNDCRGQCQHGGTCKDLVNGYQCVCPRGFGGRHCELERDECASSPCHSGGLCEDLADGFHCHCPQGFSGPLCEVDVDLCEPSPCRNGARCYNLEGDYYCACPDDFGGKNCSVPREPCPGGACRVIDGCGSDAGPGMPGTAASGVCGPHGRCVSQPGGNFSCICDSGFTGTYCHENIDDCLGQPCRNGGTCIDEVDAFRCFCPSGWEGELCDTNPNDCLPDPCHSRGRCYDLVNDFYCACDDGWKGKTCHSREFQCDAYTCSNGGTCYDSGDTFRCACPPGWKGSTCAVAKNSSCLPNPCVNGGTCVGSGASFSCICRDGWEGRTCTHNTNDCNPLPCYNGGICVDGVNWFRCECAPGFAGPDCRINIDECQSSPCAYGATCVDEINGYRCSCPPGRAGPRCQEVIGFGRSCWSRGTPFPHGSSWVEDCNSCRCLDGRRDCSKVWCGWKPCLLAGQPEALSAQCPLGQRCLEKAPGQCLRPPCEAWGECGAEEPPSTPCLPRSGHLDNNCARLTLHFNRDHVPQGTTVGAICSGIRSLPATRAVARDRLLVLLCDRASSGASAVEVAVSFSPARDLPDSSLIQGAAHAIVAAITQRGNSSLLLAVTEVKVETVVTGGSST

- Kd [1]: 1.38 nM
- Kd [2]: 70.4 ± 2.3 nM
- EC50 [3]: ~4 nM
B1: Fab N1/F/R2 (purified soluble Fab) (Fab, V domains shown)
VH: EVQLVESGGGLVQPGGSLRLSCAASGFNFSSSSIHWVRQAPGKGLEWVASIYSYYGYTYYADSVKGRFTISADTSKNTAYLQMNSLRAEDTAVYYCARSWWGGSWYAALDYWGQGTLVTVSS
VL: DIQMTQSPSSLSASVGDRVTITCRASQSVSSAVAWYQQKPGKAPKLLIYSASSLYSGVPSRFSGSRSGTDFTLTISSLQPEDFATYYCQQWWSLITFGQGTKVEIK
notes: light chain on the modified trastuzumab framework of Library-F (Persson et al., 2013); CDRs L1 and L2 fixed; clone reconstructed from NGS information; Fab heavy chain on the modified trastuzumab framework of Library-F; medium CDRH3 length; The Fab is detected by an anti-HIS antibody; source: E. coli BL21, purified (Protein-L resin)

Reference: paper PMC9381698, “Generation of synthetic antibody fragments with optimal complementarity determining region lengths for Notch-1 recognition” (Frontiers in Microbiology, 2022)
